B1: TCRm x CD3 bispecific antibody 2N18D10+IMCR (bispecific antibody)
chain 1: EVQLVESGGGSVQTGETLRLSCTVSGFTFDDSDMGWYRQAPGNECELVSTITTDGSTYYADSVKGRFTISQDNAKTTAYLQMDSLKPEDTAVYYCAADLPILRPTPCGDSVLYNYWGQGTQVTVSSGGGGSGGGGSGGGGSEVQLVESGGGSVQTGETLRLSCTVSGFTFDDSDMGWYRQAPGNECELVSTITTDGSTYYADSVKGRFTISQDNAKTTAYLQMDSLKPEDTAVYYCAADLPILRPTPCGDSVLYNYWGQGTQVTVSSASERKSSVECPPCPAPEFEGGPSVFLFPPKPKDTLMISRTPEVTCVVVDVSQEDPEVQFNWYVDGVEVHNAKTKPREEQYNSTYRVVSVLTVLHQDWLNGKEYKCKVSNKALPASIEKTISKAKGQPREPQVCTLPPSQEEMTKNQVSLSCAVKGFYPSDIAVEWESNGQPENNYKTTPPVLDSDGSFFLVSKLTVDKSRWQEGNVFSCSVMHEALHNHYTQKSLSLSPGK
chain 2: not shown
B2: TCRm x CD3 bispecific antibody 2N18D10-h16+IMCR (bispecific antibody)
chain 1: QVQLVESGGGLVKPGGSLRLSCAVSGFTFDDSDMGWYRQAPGNECELVSTITTDGSTYYADSVKGRFTISQDNAKTSAYLQMNSLRAEDTAVYYCAADLPILRPTPCGDSVLYNYWGQGTTVTVSSGGGGSGGGGSGGGGSQVQLVESGGGLVKPGGSLRLSCAVSGFTFDDSDMGWYRQAPGNECELVSTITTDGSTYYADSVKGRFTISQDNAKTSAYLQMNSLRAEDTAVYYCAADLPILRPTPCGDSVLYNYWGQGTTVTVSSASERKSSVECPPCPAPEFEGGPSVFLFPPKPKDTLMISRTPEVTCVVVDVSQEDPEVQFNWYVDGVEVHNAKTKPREEQYNSTYRVVSVLTVLHQDWLNGKEYKCKVSNKALPASIEKTISKAKGQPREPQVCTLPPSQEEMTKNQVSLSCAVKGFYPSDIAVEWESNGQPENNYKTTPPVLDSDGSFFLVSKLTVDKSRWQEGNVFSCSVMHEALHNHYTQKSLSLSPGK
chain 2: not shown
notes: also called 22N18D10-h16+IMCR
B3: anti-HLA-A02/MAGE-A4 complex and anti-CD3 control bispecific antibody 057G03 (bispecific antibody)
heavy 1: AQLVESGGGLVQPGGSLRLSCAASAYFSFKAMSWVRQAPGKGLEWVGSISPSGGSTYYNDNVLGRFTISRDNSKNTLYLQMNSLRAEDTAVYYCAKDVGFFDEWGQGTLVTVSSASTKGPSVFPLAPSSKSTSGGTAALGCLVEDYFPEPVTVSWNSGALTSGVHTFPAVLQSSGLYSLSSVVTVPSSSLGTQTYICNVNHKPSNTKVDEKVEPKSCDGGGGSGGGGSDIQMTQSPSSLSASVGDRVTITCRASQDIRNYLNWYQQKPGKAPKLLIYYTSRLESGVPSRFSGSGSGTDYTLTISSLQPEDFATYYCQQGNTLPWTFGQGTKVEIKSSASTKGPSVFPLAPSSKSTSGGTAALGCLVKDYFPEPVTVSWNSGALTSGVHTFPAVLQSSGLYSLSSVVTVPSSSLGTQTYICNVNHKPSNTKVDKRVERKSCVECPPCPAPEFEGGPSVFLFPPKPKDTLMISRTPEVTCVVVDVSHEDPEVKFNWYVDGVEVHNAKTKPREEQYNSTYRVVSVLTVLHQDWLNGKEYKCKVSNKALPASIEKTISKAKGQPREPQVYTLPPCREEMTKNQVSLWCLVKGFYPSDIAVEWESNGQPENNYKTTPPVLDSDGSFFLYSKLTVDKSRWQQGNVFSCSVMHEALHNHYTQKSLSLSPGK
heavy 2: AQLVESGGGLVQPGGSLRLSCAASAYFSFKAMSWVRQAPGKGLEWVGSISPSGGSTYYNDNVLGRFTISRDNSKNTLYLQMNSLRAEDTAVYYCAKDVGFFDEWGQGTLVTVSSASTKGPSVFPLAPSSKSTSGGTAALGCLVEDYFPEPVTVSWNSGALTSGVHTFPAVLQSSGLYSLSSVVTVPSSSLGTQTYICNVNHKPSNTKVDEKVERKSCVECPPCPAPEFEGGPSVFLFPPKPKDTLMISRTPEVTCVVVDVSQEDPEVQFNWYVDGVEVHNAKTKPREEQYNSTYRVVSVLTVLHQDWLNGKEYKCKVSNKALPASIEKTISKAKGQPREPQVCTLPPSQEEMTKNQVSLSCAVKGFYPSDIAVEWESNGQPENNYKTTPPVLDSDGSFFLVSKLTVDKSRWQEGNVFSCSVMHEALHNHYTQKSLSLSPGK
light: DIQMTQSPSSLSASVGDRVTITCRASQSISSYLAWYQQKPGKAPKLLIYDASIRDIGVPSRFSGSGSGTDFTLTISSLQPEDFATYYCQQYSSYPYTFGQGTKLEIKRTVAAPSVFIFPPSDRKLKSGTASVVCLLNNFYPREAKVQWKVDNALQSGNSQESVTEQDSKDSTYSLSSTLTLSKADYEKHKVYACEVTHQGLSSPVTKSFNRGEC
chain: EVQLVESGGGLVQPGGSLRLSCAASGYSFTGYTMNWVRQAPGKGLEWVALINPYKGVSTYNQKFKDRFTISVDKSKNTAYLQMNSLRAEDTAVYYCARSGYYGDSDWYFDVWGQGTLVTVSSASVAAPSVFIFPPSDEQLKSGTASVVCLLNNFYPREAKVQWKVDNALQSGNSQESVTEQDSKDSTYSLSSTLTLSKADYEKHKVYACEVTHQGLSSPVTKSFNRGEC
notes: also called 057D03 (variable regions)
B4: anti-HLA-A02/MAGE-A4 complex TCRm antibody N18D10-Fc (Fc fusion)
chain: EVQLVESGGGSVQTGETLRLSCTVSGFTFDDSDMGWYRQAPGNECELVSTITTDGSTYYADSVKGRFTISQDNAKTTAYLQMDSLKPEDTAVYYCAADLPILRPTPCGDSVLYNYWGQGTQVTVSS
notes: Camel VHH fused to the Fc region of human IgG1; not shown: Fc region of human IgG1
B5: humanized anti-HLA-A02/MAGE-A4 complex TCRm antibody N18D10-h16-Fc (Fc fusion)
chain: QVQLVESGGGLVKPGGSLRLSCAVSGFTFDDSDMGWYRQAPGNECELVSTITTDGSTYYADSVKGRFTISQDNAKTSAYLQMNSLRAEDTAVYYCAADLPILRPTPCGDSVLYNYWGQGTTVTVSS
notes: Humanized VHH fused to the Fc region of human IgG1; not shown: Fc region of human IgG1

Assays:
[1] = molecular target: T1, HLA-A02 complex of … (MHC-P1-His), disulfide trap single-chain trimer (human); assay: SPR, Biacore T200, method of Section 3.1; affinity for MHC-P1
T1 construct: also called recombinant protein MHC-P1

[2] = molecular target: T2, HLA-A02/MAGE-A4 complex on the cell surface (MAGE-A4230-239 (…) presented by HLA-A02) (human); assay: cell-based or functional assay
[3] = molecular target: T2, HLA-A02/MAGE-A4 complex on the cell …; assay: cell-based or functional assay; remark: listed apart in the source
[4] = molecular target: T2, HLA-A02/MAGE-A4 complex on the cell …; assay: cell-based or functional assay; remark: listed apart in the source
[5] = molecular target: T2, HLA-A02/MAGE-A4 complex on the cell …; assay: cell-based or functional assay; remark: listed apart in the source
[6] = molecular target: T1, HLA-A02 complex of … (MHC-P1-His), …; assay: SPR, Biacore T200; antibody captured by anti-human IgG (Fc), MHC-P1-His injected, 25°C, 1:1 model
[7] = molecular target: T3, HLA-A02 complex of alanine-scanning mutant peptide V2A of MAGE-A4230-239 on pulsed T2 cells (human); assay: flow cytometry on peptide-pulsed T2 cells, N18D10-Fc at 10 nM, anti-human IgG-FITC
T3 construct: whole, on cells

[8] = molecular target: T4, HLA-A02 complex of alanine-scanning mutant peptide H8A of MAGE-A4230-239 on pulsed T2 cells (human); assay: as above
T4 construct: whole, on cells

[9] = molecular target: T5, HLA-A02 complex of alanine-scanning mutant peptide V10A of MAGE-A4230-239 on pulsed T2 cells (human); assay: as above
T5 construct: whole, on cells

[10] = molecular target: T6, HLA-A02 complex of alanine-scanning mutant peptide E7A of MAGE-A4230-239 on pulsed T2 cells (human); assay: as above
T6 construct: whole, on cells

[11] = molecular target: T7, HLA-A02 complex of alanine-scanning mutant peptide T9A of MAGE-A4230-239 on pulsed T2 cells (human); assay: as above
T7 construct: whole, on cells

[12] = molecular target: T8, HLA-A02 complex of alanine-scanning mutant peptide R6A of MAGE-A4230-239 on pulsed T2 cells (human); assay: as above
T8 construct: whole, on cells

[13] = molecular target: T9, HLA-A02 complex of alanine-scanning mutant peptide Y3A of MAGE-A4230-239 on pulsed T2 cells (human); assay: as above
T9 construct: whole, on cells

[14] = molecular target: T10, HLA-A02 complex of alanine-scanning mutant peptide D4A of MAGE-A4230-239 on pulsed T2 cells (human); assay: as above
T10 construct: whole, on cells

[15] = molecular target: T11, HLA-A02 complex of alanine-scanning mutant peptide G5A of MAGE-A4230-239 on pulsed T2 cells (human); assay: as above
T11 construct: whole, on cells

[16] = molecular target: T2, HLA-A02/MAGE-A4 complex on the cell …; assay: as above
[17] = molecular target: T1, HLA-A02 complex of … (MHC-P1-His), …; assay: SPR, Biacore T200, method of Section 3.1; antibody captured, MHC-P1-His injected

Binder | Kd [1] [nM] | koff [1] [s⁻¹] | kon [1] [M⁻¹ s⁻¹] | EC50 of killing of A375 cells (HLA-A02+/MAGE-A4+) via PBMCs (LDH release) [2] [nM] | EC50 of killing of antigen peptide-pulsed T2 cells via PBMCs (LDH release) [3] [nM] | EC50 of activation of Jurkat-Dual cells via HLA-A02+/MAGE-A4+ tumor cells A375 (QUANTI-Luc) [4] [nM] | EC50 of activation of Jurkat-Dual cells via antigen peptide-pulsed T2 cells (QUANTI-Luc) [5] [nM] | other results
B1 | 0.388 | 7.61e-05 | 196000 | 0.0498 | 0.00236 | 0.189 | 0.0145 | 
B2 | 0.43 | 7.83e-05 | 182000 | 0.0761 | 0.00256 | 0.145 | 0.0143 | 
B3 | 33 | 0.0167 | 507000 | 5.52 | 0.00453 | 0.749 | 0.175 | 
B4 |  |  |  |  |  |  |  | Kd [6]: 0.388 nM; koff [6]: 7.18e-05 s⁻¹; kon [6]: 185000 M⁻¹ s⁻¹; binding relative to the original peptide [7]: 41.1%; binding relative to the original peptide [8]: -0.13%; binding relative to the original peptide [9]: 0.35%; binding relative to the original peptide [10]: 27.4%; binding relative to the original peptide [11]: 33.6%; binding relative to the original peptide [12]: -0.56%; binding relative to the original peptide [13]: -0.12%; binding relative to the original peptide [14]: 18.4%; binding relative to the original peptide [15]: -1.02%; binding relative to the original peptide [16]: 100%
B5 |  |  |  |  |  |  |  | Kd [17]: 0.467 nM; koff [17]: 7.61e-05 s⁻¹; kon [17]: 163000 M⁻¹ s⁻¹

From patent EP4772538A1 (Beijing Wisdomab Biotechnology Co., Ltd, dated 2026)
